Test results taken from patent publication US20240377400A1, “METHODS FOR TREATING A SUBTYPE OF COLORECTAL CANCER” (Cornell University, priority 2021, published 2024).

Columns and labels:
[1] = system: MTO-sgPrkci/sgPrkcz tumors; assay: Subcutaneous sgPrkci/Prkcz MTO tumors: PEGPH20 combined with anti-PD-L1; format: in vivo, mouse
Experimental: FIGS. 13B-13F illustrate Subcutaneous injection of sgPrkci/Prkcz MTOs in WT mice treated twice a week with PEGPH20 (0.0375 mg/kg) and αPD-L1 (5 mg/kg) for 4 weeks (n:Veh=14, PEGPH20-treated=15 and PEGPH20-treated with αPD-L1=15). Experimental design (B); tumor volume (C); tumor weight (D); IHC for HA, αSMA, CD8, FOXP3, S100a8, and CD19 of tumors (E) and quantification (F). Scale bars, 100 μm. Results are shown as mean±SEM *p<0.05, **p<0.01, ***p<0.001, ****p<0.0001.
For colonoscopy-guided orthotopic injection in the colon submucosa using mouse tumor organoids (MTOs), a 10 μl organoid suspension of equivalent to 40-50 MTOs admixed with 10% Matrigel (Corning) was directly injected into the colonic submucosa of 7 weeks old C57BL/6 mice. 4 weeks after implantation, tumors were collected and analyzed histologically. Orthotopic tumor sizes were measured by caliper after mice were sacrificed. For xenografts using MTOs, a 100 μl cell suspension of equivalent to 0.5×10^6 cells of sgPrkci/Prkcz or sgC MTOs admixed with 30% Matrigel (Corning) was directly injected subcutaneously into the right flank of 7 weeks old C57BL/6 mice. Tumors were allowed to grow for 14 days, and mice were randomly divided to receive vehicle, n=20, or PEGPH20 (0.0375 mg/kg, 2 days each week) via retro-orbital injection, n=18. Tumors were measured twice a week. Mice were euthanized three weeks after treatment and tumors were analyzed histologically. For the combination therapy of anti-PD-L1 (Clone B7-H1, Bioxcell) antibody and PEGPH20, mice were injected with a dose of 5 mg/kg (body mass) of anti-PD-L1 antibody in combination with PEGPH20 (n=15) twice a week for 4 weeks until they were sacrificed.

[2] = system: tumors from Prkci^fl/fl Prkcz^fl/fl Villin-cre (DKO) mice; assay: scRNAseq and IHC of DKO mouse intestinal tumors treated with PVHA or Galunisertib; format: in vivo
Experimental: FIG. 3A illustrates the experimental design: Prkci^fl/flPrkcz^fl/fl (DKO) mice were treated either with PVHA (0.0375 mg/Kg twice per week) or Galunisertib (10 mg twice daily) as described. Intestinal tumors were analyzed by scRNAseq.
To identify the mechanism of action of PVHA in the treatment of CMS4 tumors, scRNAseq was performed using 10× Genomics Chromium platform on tumors from Prkci^fl/fl Prkcz^fl/fl Villin-cre (DKO) mice (n=5) treated with PVHA for 14 weeks (n=3), as compared to those treated with Galunisertib (GAL) for 17 weeks (n=3), as shown in experimental design (FIG. 3A). Unsupervised clustering identified tumor and normal epithelial cells as well as stromal and immune cells with selective markers for each population (FIGS. 3B-3C). […] Among tumor clusters (0,4,6), a cell population with transcriptomic similarities to the recently identified “revival stem cells” (RSC; high Clu) in the vehicle treated tumors was identified (FIGS. 3F-3G).

[3] = system: MTO-sgPrkci/sgPrkcz liver metastases; assay: Liver metastasis model, intrasplenic injection of sgPrkci/Prkcz MTOs; format: in vivo, mouse; settings: 5 doses over 2.5 weeks
Excerpt: CRC predominantly metastasizes to the liver, which is the leading cause of death. Five-year overall survival for metastatic CRC patients is only 14.7%. Furthermore, patients with metastatic liver disease do worse than those without liver disease across different types of cancer and are totally refractory to ICB. Based on data that PEGPH20 remodels the tumor microenvironment and enables ICB in primary MSS CRC, the potential role of targeting HA in liver metastasis was investigated. To directly test therapeutic effects on liver metastatic disease, MTO-sgPrkci/sgPrkcz was inoculated in the portal circulation of wild-type C57BL/6J mice and mice were for two weeks and a half (5 doses) with a low clinically relevant dose of PEGPH20 ([…]) or in combination with anti-PDL1 or/and anti-CTLA4 (FIG. 22A).
Intrasplenic injection of sgPrkci/Prkcz MTOs in WT mice. Mice were treated twice a week with Veh or PEGPH20 0.0375 mg/kg and/or αPD-L1 (5 mg/kg) and/or aCTLA4 (100 ug/dose) for 2.5 weeks (n: sgPrkci/Prkcz MTOs Veh-treated=7, sgPrkciiPrkcz MTOs PEGPH20-treated=7, sgPrkci/Prkcz MTOs PEGPH20 and αPD-L1-treated=7, and sgPrkci/Prkcz MTOs PEGPH20 and aCTLA4-treated=6).

B1: PEGPH20: a PEGylated version of human recombinant PH20 hyaluronidase; clinical-grade pegylated hyaluronidase (Halozyme Therapeutics) (protein, UniProt P38567 36-490, looked up)
Hyaluronidase PH-20: LNFRAPPVIPNVPFLWAWNAPSEFCLGKFDEPLDMSLFSFIGSPRINATGQGVTIFYVDRLGYYPYIDSITGVTVNGGIPQKISLQDHLDKAKKDITFYMPVDNLGMAVIDWEEWRPTWARNWKPKDVYKNRSIELVQQQNVQLSLTEATEKAKQEFEKAGKDFLVETIKLGKLLRPNHLWGYYLFPDCYNHHYKKPGYNGSCFNVEIKRNDDLSWLWNESTALYPSIYLNTQQSPVAATLYVRNRVREAIRVSKIPDAKSPLPVFAYTRIVFTDQVLKFLSQDELVYTFGETVALGASGIVIWGTLSIMRSMKSCLLLDNYMETILNPYIINVTLAAKMCSQVLCQEQGVCIRKNWNSSDYLHLNPDNFAIQLEKGGKFTVRGKPTLEDLEQFSEKFYCSCYSTLSCKEKADVKDTDAVDVCIADGVCIDAFLKPPMETEEPQIFYNASPSTLS
modifications: PEGylated
[1]; IHC CD8, CD19
  CD8+ T and B cells in the tumor: sufficient to bring
[1]; IHC S100a8, FOXP3
  amount of immunosuppressive myeloid and Tregs: reduce
[1]; IHC, PEGPH20 0.0375 mg/kg, 4 weeks
  HA content and intensity of αSMA+ stromal staining: reduced
[2]; CellphoneDB, as compared to GAL treatment
  numbers of inferred interactions of tumor epithelial cells with immune cells: higher
[2]; DKO intestine
  Cd81+Pdgfra− fibroblast around the Crypt, IHC: induction
[2]; scRNAseq
  Trophocyte-like fibroblast cluster (Cd34, Cd81): strongly increased
[2]; scRNAseq T cells
  Cd8 T cells, cell type proportion: increase
  proportion of Treg: reduce
[2]; scRNAseq cell-type proportion
  fibroblast clusters associated with human CRC (Grem1/Sfrp1, Igf1/Cxcl14), CMS4 subtype (Sfrp2) and tumor initiation (Ptgs2/Spp1): complete elimination
[2]; scRNAseq epithelial cells, compared to vehicle or GAL-treated
  tumor cells, cell percentage analysis: clear reduction
[2]; scRNAseq goblet cells
  tumoral goblet population: reduction
[2]; scRNAseq immune cells
  T cells, cell-type proportion: increase
  myeloid cells, cell-type proportion: decrease
[2]; scRNAseq myeloid cells
  TAN1 (anti-tumoral neutrophils): increased
  TAN2 (pro-tumoral neutrophils): reduced
  proportion of dendritic cells: increased
[2]; scRNAseq, PVHA 0.0375 mg/Kg twice per week, 14 weeks, Galunisertib 10 mg twice daily, 17 weeks
  percentage of stromal and immune cells: decreased
[2]; scRNAseq, as compared to GAL
  mature goblets proportion: increased
[2]; scRNAseq, population lost in the DKO intestine
  Lgr5 Stem Cells population: recovered
[2]; scRNAseq, without apparent changes in cell-type proportions
  number of stromal cells: reduced
[2]; tumor area
  Clu IHC: decrease
  immature goblets, IHC double staining for Alcian blue and Lyz1: reduction
[3]
  number of established liver tumors and volume of those tumors: reducing
[3]; PEGPH20 0.0375 mg/kg, αPD-L1 5 mg/kg, aCTLA4 100 ug/dose
  metastatic burden of MTO-sgPrkci/sgPrkcz: markedly decreased
